Results on 31 molecules are retold here after PMC10786891, “Massively parallel profiling of RNA-targeting CRISPR-Cas13d”.

Residue numbers refer to the chain shown, from its start. Numbers in names are those of the source.

B1: target 1 insC 3' of 12,insU 3' of 4 (mixed)
RNA 1: CACCCGUGCAAAAAUGCAGGGGUCUAAAACUGAGCGGAUAACCUCUCUAUGG
RNA 2: GGGAAUGGAUCCACAUCUACGAAUUCGUACCAUAGAGAGGCUUAUCCGCUUCACCGAGAUCGGAAGAGCACACGU
B2: target 1 insA 3' of 17,insG 3' of 3 (mixed)
RNA 1: B1 RNA 1
RNA 2: B1 RNA 2 with G37A, A38G, G39A, C41G, U51G
B3: target 1 insA 3' of 22,insA 3' of 6 (mixed)
RNA 1: B1 RNA 1
RNA 2: GGGAAUGGAUCCACAUCUACGAAUUCGUACACAUAGAGAGGUUAUCCAGCUCACCGAGAUCGGAAGAGCACACGU
B4: target 3 G4U,C6G (mixed)
RNA 1: CACCCGUGCAAAAUUGCAGGGGUCUAAAACGACCUGAAUAUUUCAGAUCAAA
RNA 2: GGGAAUGGAUCCACAUCUACGAAUUCGUUUUUGAUCUGAAAUAUUGAUGUCUGCAGAUCGGAAGAGCACACGU
B5: target 3 U2G,U7G (mixed)
RNA 1: B4 RNA 1
RNA 2: B4 RNA 2 with U45G, G46C, U48G, U50G
B6: target 3 insC 3' of 21,insG 3' of 5 (mixed)
RNA 1: B4 RNA 1
RNA 2: GGGAAUGGAUCCACAUCUACGAAUUCGUUUUCUGAUCUGAAAUAUUCAGGGUCUGCAGAUCGGAAGAGCACACGU
B7: target 3 insG 3' of 7,insU 3' of 6 (mixed)
RNA 1: B4 RNA 1
RNA 2: GGGAAUGGAUCCACAUCUACGAAUUCGUUUUUGAUCUGAAAUAUUGCUAGGUCUGCAGAUCGGAAGAGCACACGU
B8: target 3 C1A (mixed)
RNA 1: B4 RNA 1
RNA 2: B4 RNA 2 with G46C, U48G, C51A
B9: target 3 C6G,U7G (mixed)
RNA 1: B4 RNA 1
RNA 2: B4 RNA 2 with U45G, U48G
B10: target 3 insA 3' of 4,insU 3' of 4 (mixed)
RNA 1: B4 RNA 1
RNA 2: B7 RNA 2 with G46C, C47A, U48G, G50U
B11: target 3 C1U,G3C (mixed)
RNA 1: B4 RNA 1
RNA 2: B4 RNA 2 with G46C, U48G, G49C, C51U
B12: target 3 C1A,A18G (mixed)
RNA 1: B4 RNA 1
RNA 2: B4 RNA 2 with A34G, G46C, U48G, C51A
B13: target 3 G3C,U21A (mixed)
RNA 1: B4 RNA 1
RNA 2: B4 RNA 2 with U31A, G46C, U48G, G49C
B14: target 3 insC 3' of 5,insA 3' of 1 (mixed)
RNA 1: B4 RNA 1
RNA 2: B7 RNA 2 with G46C, C47A, U48C, A49G, G51U, U52C, C53A
B15: target 3 insG 3' of 5,insG 3' of 1 (mixed)
RNA 1: B4 RNA 1
RNA 2: B7 RNA 2 with G46C, C47A, U48G, A49G, G51U, U52C, C53G
B16: target 3 insA 3' of 6,insC 3' of 3 (mixed)
RNA 1: B4 RNA 1
RNA 2: B7 RNA 2 with G46C, C47A, U48A, A49G, G51C
B17: target 3 G3C,A5U (mixed)
RNA 1: B4 RNA 1
RNA 2: B4 RNA 2 with G46C, A47U, U48G, G49C
B18: target 3 insA 3' of 6,insU 3' of 3 (mixed)
RNA 1: B4 RNA 1
RNA 2: B7 RNA 2 with G46C, C47A, U48A, A49G, G51U
B19: target 3 insA 3' of 20,insC 3' of 20 (mixed)
RNA 1: B4 RNA 1
RNA 2: GGGAAUGGAUCCACAUCUACGAAUUCGUUUUUACGAUCUGAAAUAUUCAGGUCUGCAGAUCGGAAGAGCACACGU
B20: target 3 insA 3' of 22 (mixed)
RNA 1: B4 RNA 1
RNA 2: GGGAAUGGAUCCACAUCUACGAAUUCGUUUAUUGAUCUGAAAUAUUCAGGUCUGCAGAUCGGAAGAGCACACGU
B21: target 3 insU 3' of 9,insG 3' of 9 (mixed)
RNA 1: B4 RNA 1
RNA 2: B7 RNA 2 with U45G, G46U, C47U, U48C
B22: target 3 C1G,U10A (mixed)
RNA 1: B4 RNA 1
RNA 2: B4 RNA 2 with U42A, G46C, U48G, C51G
B23: target 3 insC 3' of 13,insG 3' of 2 (mixed)
RNA 1: B4 RNA 1
RNA 2: B7 RNA 2 with A40C, U42A, A43U, U44A, G46U, U48A, A49G, G51U, U52G
B24: target 3 insC 3' of 7,insU 3' of 5 (mixed)
RNA 1: B4 RNA 1
RNA 2: B7 RNA 2 with G46C, U48A, A49U
B25: target 3 insA 3' of 7,insC 3' of 4 (mixed)
RNA 1: B4 RNA 1
RNA 2: B7 RNA 2 with G46A, U48A, A49G, G50C
B26: target 3 C1A,U2A (mixed)
RNA 1: B4 RNA 1
RNA 2: B4 RNA 2 with G46C, U48G, U50A, C51A
B27: target 3 A9G,U22A (mixed)
RNA 1: B4 RNA 1
RNA 2: B4 RNA 2 with U30A, A43G, G46C, U48G
B28: target 3 A18G (mixed)
RNA 1: B4 RNA 1
RNA 2: B4 RNA 2 with A34G, G46C, U48G
B29: target 3 insU 3' of 11,insA 3' of 2 (mixed)
RNA 1: B4 RNA 1
RNA 2: B7 RNA 2 with A43U, U44A, G46U, U48A, A49G, G51U, U52A
B30: target 3 insU 3' of 18,insC 3' of 11 (mixed)
RNA 1: B4 RNA 1
RNA 2: B19 RNA 2 with A33G, C34A, G35U, A36U, U37C, C38U, U39G, G40A, A43C
B31: target 3 C1G,A18G (mixed)
RNA 1: B4 RNA 1
RNA 2: B4 RNA 2 with A34G, G46C, U48G, C51G

This data set deals with T1, EsCas13d, nuclease-dead (Eubacterium siraeum, UniProt B0MS50, R295A;H300A;R849A;H854A).
T1 sequence: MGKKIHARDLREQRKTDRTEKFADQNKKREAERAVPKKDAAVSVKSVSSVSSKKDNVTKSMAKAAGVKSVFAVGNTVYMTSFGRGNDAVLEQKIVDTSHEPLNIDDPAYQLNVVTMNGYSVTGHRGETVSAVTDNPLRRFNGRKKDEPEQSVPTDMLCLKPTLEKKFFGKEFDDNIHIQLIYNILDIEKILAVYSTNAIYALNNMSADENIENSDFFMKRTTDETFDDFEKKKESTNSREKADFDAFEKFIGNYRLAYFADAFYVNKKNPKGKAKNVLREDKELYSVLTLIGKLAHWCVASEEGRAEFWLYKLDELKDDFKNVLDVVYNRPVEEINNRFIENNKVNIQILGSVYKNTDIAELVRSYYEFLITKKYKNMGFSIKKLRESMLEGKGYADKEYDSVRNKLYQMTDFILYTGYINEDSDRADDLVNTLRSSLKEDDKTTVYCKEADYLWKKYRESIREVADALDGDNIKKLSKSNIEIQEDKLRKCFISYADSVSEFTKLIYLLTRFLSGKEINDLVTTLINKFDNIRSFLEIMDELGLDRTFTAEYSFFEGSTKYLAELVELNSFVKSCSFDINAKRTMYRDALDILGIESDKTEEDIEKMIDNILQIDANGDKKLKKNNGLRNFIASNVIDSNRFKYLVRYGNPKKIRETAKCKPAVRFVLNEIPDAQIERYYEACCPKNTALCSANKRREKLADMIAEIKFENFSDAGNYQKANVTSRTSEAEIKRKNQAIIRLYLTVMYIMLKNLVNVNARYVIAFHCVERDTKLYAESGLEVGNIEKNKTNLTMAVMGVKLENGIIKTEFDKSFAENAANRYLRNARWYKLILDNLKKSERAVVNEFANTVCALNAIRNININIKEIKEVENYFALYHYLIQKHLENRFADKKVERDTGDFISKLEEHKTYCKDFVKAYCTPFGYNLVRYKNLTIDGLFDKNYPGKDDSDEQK
The data set is described as follows: crRNA (strand 1, pre-loaded); Mg2+; 40 mM Tris-HCl pH 7.5, 150 mM NaCl, 6 mM MgCl2, 1 mM DTT, 0.1% Tween-20, 0.2 mg/ml BSA; 25 C; 10 min per concentration, then washed. Conditions: tags: His6-TwinStrep-SUMO cleaved; N-terminal SNAP kept (SNAP-Surface 488); label: 3' end held by stalled T7 RNA polymerase.
B1 registered a Kd of 0.0075 ± 0.0008 µM. B2 displayed a Kd of 0.0109 ± 0.0006 µM. B3: the affinity, expressed as Kd, was 0.0222 ± 0.0013 µM. As for B4, binding was put at a Kd of 0.0685 ± 0.015 µM. In the case of B5 it was 0.0209 ± 0.00245 µM; in that of B6, 0.081 ± 0.0155 µM; in that of B7, 0.0201 ± 0.0019 µM. Molecule B8 gave a Kd of 0.02 ± 0.00255 µM.

B9 gave an equilibrium dissociation constant (Kd) of 0.0465 ± 0.0045 µM.

Molecule B10 yielded a Kd of 0.044 ± 0.016 µM. Molecule B11 displayed a Kd of 0.0495 ± 0.0155 µM.

The molecule B12 displayed an equilibrium dissociation constant (Kd) of 0.0485 ± 0.014 µM. The molecule B13 registered a Kd of 0.0725 ± 0.0135 µM. On to B14, for which the Kd worked out at 0.0231 ± 0.00405 µM. With B15, the Kd came out at 0.037 ± 0.0095 µM. B16 displayed a Kd of 0.0077 ± 0.0006 µM. With B17, binding was characterised by a dissociation constant (Kd) of 0.025 ± 0.0026 µM. Molecule B18 registered a Kd of 0.00525 ± 0.0005 µM. The result for B19 reads approximately 0.11 µM; that for B20, 0.0206 ± 0.0034 µM. The result for B21 reads 0.0895 ± 0.0245 µM; that for B22, 0.043 ± 0.014 µM; that for B23, 0.05 ± 0.011 µM.

As for B24, the equilibrium dissociation constant (Kd) is 0.057 ± 0.0075 µM. Take B25: the Kd is 0.0485 ± 0.008 µM.

B26 yielded a Kd of 0.049 ± 0.0065 µM.

Take B27: the Kd worked out at 0.0276 ± 0.00315 µM. The result for B28 reads 0.0192 ± 0.0017 µM; that for B29, 0.0565 ± 0.0085 µM; that for B30, 0.049 ± 0.009 µM. The result for B31 reads 0.0186 ± 0.0026 µM.

As a reminder, the Kd is the equilibrium constant for the complex coming apart.
